# Data as given in the domain aggregation screens of Martell et al. (2025).
# Test: soluble fraction after stress (log2 fold change); higher = more stays soluble; pooled small domains, quantitative proteomics
# Conditions: stress: pH 4
# Method in brief: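 With high-throughput quantitative proteomics, pooled custom libraries of small protein domains were measured after pH 4 stress. Each domain's soluble amount after the stress gives a fold change taken as aggregation propensity. Higher log2 values mean more of the domain stayed soluble.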
row,Sequence,soluble fraction (log2)
1,HMTLVSALDQKTKDSAYYRGTYLAGKISAGKMTKQEAVADIMKNYDGNTAAMKVAAEKAGVSDLLSQTVL,0.0773
2,HMTMKQVFIETDANVNQKIMLNEKEAHHLFDVLRTSDKETIRVVTNTSQVFLARVQQKPYIYLFDKMTVE,-1.76
3,HMTMNYFIIENNQQVGPLTLEQLVARNITSDTLVWKEGMEDWQPAWKVDELHTVLDQIRANAEQ,-1.19
4,HMTMVVIMNADATQADIEGVISAIEEKGLEAKVMEGAHQKIVGVIGDKTKLAATPLDAMHGVETTVAIS,0.131
5,HMTNATVGQIKKLARASILYGNSNLSGNRYTYKANTTVTILQNISSNVDKIRVNVTGRVAYIDNSNYSSST,0.34
6,HMTNEQLSKAKSWVQIAVYAAEKLYGAGNGDQKLVYAEEILRKHGIRLDTATLKAMIDAQIKEMEN,0.131
7,HMTNEWRKILSNLNGKYQIVMELFYVDGFSTKEIARMLHITEVNVRSRMVRGRKQLEQILTVR,0.0998
8,HMTNPPITTEARNLVVEQLKELNALHPEKARELADSYKKEFNVPKVIGHITEARHGEFLALAISKIDES,-0.399
9,HMTNPPTPADTLFNTVRGVLQSILKSPMKDTEVASALNVSKAQARSWLQRLSDEGLIEKRKNPTAYVL,-0.321
10,HMTNTYEVIKNDIIFGVLPPLKKLKLLELKKKYITSVSTLREILSRLSGDGFVVSKEQKGFYVSAV,-0.22
11,HMTNVNSLIGKKAIVIQDIDNLKSTGQVKIGGEIWSAQSESNDIISKDTEVEIVKIDGVKLIVRLVPV,0.225
12,HMTNYNTEKIIPEEQAGKRLDVVLANIFPEFSRSRLKNWIIDGFILVDGKVLRPRDFVTGGELVSIDVIV,-0.356
13,HMTPADEAGNDLDIGQTVKILRRVSEGQYEVSYRGTTWQARALNAQAAVEPSFAVIGGKEGNILLVHL,-0.115
14,HMTPDVAEFRERLRQILPGEQIEVRTANDGIVLSGTVSSIARLDAALQLAERYAPSRVSNLMSVG,0.399
15,HMTPEPVREALTFQEGRVFALAAKNMTNAEIAQSLSLKLKTVENYMSIIYQKLALKNRYELLVYARKSGV,-0.117
16,HMTPESSLHSGLGKILHDALTAKIQLTNFEAKFLSDMQSKYDLNGSFSWLSSKQQTTLEKILAKYGR,0.0478
17,HMTPFLVRVDISDLNIRTGAGTNYSRTGQYTGKGIFTILEVKSGQGSDAGWGRLKSGAGWISLDYTTR,0.275
18,HMTPIELIEKTIELIENERKVQKLQQKELALKADIPFPTYKDFIYKKRASLENILKLFIALRLF,-0.88
19,HMTPKVAVPSFVGWKFEDVERQLGTMGLIRGKVDNHPSEEYSEGRVIWQSVLGEVEKGKVIDFWVSTGPE,-0.776
20,HMTPNATWQDDAQSLLRDLIQHQPVLIQISAAKRLRDQAEQISRITGGDTVTRDHVEAAGHALGMGVT,-0.39
21,HMTPPLSKIRNMTPDQQRSSVIEARKKGYNLLQLEGLAKAQGATPADLLVLRNAWAQSEFDQKR,0.331
22,HMTPQVALNDTETAIYEKMKQEKQMLLGELRAQFDISNKLWDTSLKTLTKNQLLAVSKEDDLLFVKL,-0.437
23,HMTPQVTVPDVTGQSFASAKQVLESLGLTVKQQGSTGENDKVIGQNPTSGNADKGATITLTTQDS,-0.154

row,Sequence,soluble fraction (log2)
1,HMTPSTVQVHVAGAVKNPGVYVLLENARNIDAITAAGGATSEADLERINLSEFIRDGQRVYVPYKGDPI,0.0384
2,HMTPTITNALEEAEKAVSEVQEGKKEIELTPQGAYIRHLQHAIADRYGISSTSTGRDPKRKVIIY,-0.437
3,HMTPTNILIVEDEKEIRRFVRTALESEGLRVFESETLQRGLIEAGTRKPDLIILDLGLPDGDGLSYIRDLR,-0.662
4,HMTPTRQATVSVAALNVREQPSLQGRRLGKLTQGTTLTVVGPPGEWLKIEYKGETGFVYASYTSLG,-0.0723
5,HMTPTVEAAKEEVLRVLASAAPRGLTRTELEAEVSFRRTKLRDTLVELERIGRIDSVGRRGNATTYRLIG,-0.0736
6,HMTPVEVNARGVHVDFSKGGILLEDVVRHLILEALRASEWKRGPAAQLLGISKETLRYRMEKYRLYPP,-0.706
7,HMTPYEVLVYESLKQKILSGGYAAGEKIPEQSVSEELGVSRSPLRSAIRRLASEGLIEYYPYRGAFVKA,-0.751
8,HMTQEAMRSLRKSLQNLSSRQQVIFMLRHYEGLALKEIAEHLGLETGTVKAHLHRAVTQLRKDLVE,-0.112
9,HMTQHDIVPLMLKMVDVLTQFVELDIPFLQQERQTRLAALNAMMGRADVSLAEKYRRIMEAYQVETEYG,-0.254
10,HMTQLEVDLFERLITISGVGPRLALAVLSGLEPPDLLRAIQDSDIVRLQGIPGVGKKTAERISLELKDKLS,-0.854
11,HMTQQYVEWKVYNVTTIKNKYGFRVKLIFQDGSDATQQKGGFTSKKAAEQARTEVIGQLYSNTYVVY,≥ 0.43
12,HMTQSGLTQWEFNMLRQALIEMLGEKPGSVFELARLLPLEQEKNVQALRFLLDHDDQFHLKDEYISFVKRT,-1.82
13,HMTQTAVFSKGEQEYYFPLSKVLFFETDGNTINVHTADDIYETRYRLYELEEMLPGSFMRISKSAVVNTNR,-0.161
14,HMTRAEVQALLEKQAKDFEVEVVHRGWKKTVQTPEFAGWYSQQPAEIKALAESDDPAVAIRMLDLFSGTK,-0.644
15,HMTRETTQAWWEARQTLPSGEQRSAASLSQEASHVRRFYRWAMQQGLTDRNPADWLPDVRQK,-0.062
16,HMTRIHEEVVNQVHDLVKEGRFKAGDQLPSERELAEIFKVSRTSVREALRALETQGLIISRTGMGNFIAD,-0.472
17,HMTRILTEDDIVNFLIRQPDTAYIIAKSFNENERKVKELLDLLIKKNKVREEIVNGVVSYAVN,-0.208
18,HMTRKQTIYEFLRRMKSQHGLDAVYSTEEIANAVGVSRANVSSDLNRLFEEQLVEKLPGWPVKYRA,0.128
19,HMTRNEFMTALRKRLSHLPAEEQDAALKYYEEYFDEAESEEEAARQLGSPDAIADRILADYGAG,-0.261
20,HMTRPLVILEDVKFPSYNEIVSLTLPDGTRRGGQVLEVSGNKAIVQVFEGTSGIDVKDTHIELTKSS,0.0449
21,HMTRQEFIRKLQEALNGKLDAATIQDHLKFYDDYIIEEMRKGKSEQEVLELLGDPWAIAKTIVDAS,-0.44
22,HMTRQKEAILALLTDSRGEALSASELLARLTRSGSSIGRTTVYRLLSQLVDDGVVRAWRDASRGITLYELS,-0.44
23,HMTRQPSAKEHAVLTAVKEGLRRDGRAPTVRALADMTGAASTSTVQRRISALIDLGLLRRTDGTLEVVE,0.202

row,Sequence,soluble fraction (log2)
1,HMTRRVIRAPAAGIMRSNVKLGDLVKEGDVIAWIGEHEIKAPLTGMVRGLLNDGLAVVGGFKIGDI,0.157
2,HMTSEPFYNPRRPQPYWTSETDRHTTYADAVRALAREFSETPEWVESNMGETNDLQEIRRNLSRVKSG,-0.108
3,HMTSESWAEKSRSLAAAGLIVMGRDAQLKIEGLTNLDPLIEAATASSTRLLTGQTIDELLTIVP,-0.627
4,HMTSEVLTNATIVKMVKAKLSDDIIIDEINNARVNFDVSPEGIKSLTAQNVTEPVIETMKKAVAAQESI,0.428
5,HMTSFDVMLKSAGANKLAVVKLVKELTGLGLKEAKDIVDAAPSKVKEGVSKEEAEELQKQLTGAGAEVEL,0.309
6,HMTSHYTVLGVKETDTIEMIRTHYRKLILQFHPDKNQHLTEEERKKLEVKVLQIREAYEKIKKEK,-0.816
7,HMTSIISLAKARSIALQKVPGATSKNIHLSLDDEDDKQVYEGEIKYKQMEYVFEIDAKTGTFLKWTSERD,0.185
8,HMTSKTLSAVEGEGLRLDKFLSNQLPELSRTKIQKMINDGLVFVNNTEAKASLILDGSEFIAYTVPD,-0.0789
9,HMTSLAEQAYRHIRDKLSNGAFVPGEQLVNRVLATEIGVSVIPVREAINRLATEGLVKHVPGSGAFVRQ,0.197
10,HMTSLYDILGIAKTADSQTIKTAFKKKALLYHPDKNNGNLKKEEIFKKISTAYQILSDPKSRANYDLSIA,0.22
11,HMTSMNNTEELIDMANKIIDNNPNMVLKYKEGRNVLDFFIGQVMKETKGRANPSATSKIFKDLLEK,0.171
12,HMTSNKTVPYSELKGLISTGKIEYVGIGNTQIRAVSKSGAGIVTYTARRVIPDDTLIPELEKNGIAYGGI,0.112
13,HMTSNSLNLKDEISAFLTKNAGISYSAERIAHALNMDNADQFTPIIQTLAQLEREKKVRVTDKGEFEAVIK,0.229
14,HMTSSKISFIDPVNGGKVSVSLENSTLEKLQNRFGVNSVVRNEAGDVELKDKAQEFVAGWFADIAYTRG,-0.89
15,HMTTAGTAIVQTGNSGKLNLREQAYANAGILGRYSNGTAVTVLQKGAAWSYVEVKGQKGYMMSKFLKFTS,-0.341
16,HMTTEIVRMKKDVKIGQEITAKDIEVVEVGAYNLPDEVIRSSEEVVGKYVSSELLKGEYVLPSKISDTP,-0.53
17,HMTTEPYILTRMPDGSIKAEPNLNYKGPEQKPGSNIQVKGADGRIYLVPIDGQGKPGKPQLVD,0.127
18,HMTTGLETYPGKIAVVSDDFIDGEGRVQLDGALWRAKTKDHQQLKQGDHVTIVNVKGLTLTVMPDD,-0.0405
19,HMTTGREGLIGAVGTVRQAIAPEGYVFVEGELWRAKSPAGPLEPGTTVRVIAIDGLTLTVMPAE,-0.564
20,HMTTGTVKWFNDAKGFGFITPDDRSVDVFVHYSNIVGQSGRRTLMEGERVEYEAIEGPKGPQATDVARA,-1.06
21,HMTTIFDNINGELRRRHLTQQDLAKTIEIDRRTWSKWQDKNDMPASVLLQIAKWLNVTLDYLTRD,0.0559
22,HMTTIKLTQEDVEKIKSLPKRTFLIGNLQQTGLYDEKTRRFYYLDANGEWNGRLAIINTPPPPPPPP,-0.0951
